The assay addresses Fas (CD95) on L1210 and L1210/DDP cells (UniProt P25446). Kind of assay: cell-based or functional assay.

For one substance, % dead cells over background of untreated cells, L1210/0 on anti-Fas coated plates and % dead cells over background of untreated cells, L1210/DDP on anti-Fas coated plates results are on record in patent US7381413.

UniProt P25446, sequence (P25446 22-327 limits assumed): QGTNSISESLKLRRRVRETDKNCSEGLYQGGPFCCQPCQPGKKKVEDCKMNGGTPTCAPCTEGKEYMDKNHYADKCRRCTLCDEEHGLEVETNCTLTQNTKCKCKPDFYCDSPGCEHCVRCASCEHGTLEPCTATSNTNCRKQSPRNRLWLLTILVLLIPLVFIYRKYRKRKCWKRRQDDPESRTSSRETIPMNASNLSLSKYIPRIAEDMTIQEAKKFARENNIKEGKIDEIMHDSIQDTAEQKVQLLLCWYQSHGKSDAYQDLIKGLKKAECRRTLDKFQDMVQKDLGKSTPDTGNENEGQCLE

Take anti-Fas antibody Jo2.2 (Pharmingen): the % dead cells over background of untreated cells, L1210/0 on anti-Fas coated plates was 80% and the % dead cells over background of untreated cells, L1210/DDP on anti-Fas coated plates turned out to be 46.6%.
